Assay results from patent US20230167164A1 (IMMUNOWAKE, published 2023).
Residue numbers refer to the chain shown, from its start. In names and notes the source's numbering stands.

T1: mouse PD-1 (mouse, UniProt Q02242 25-167, limits assumed)
T1 construct: also called mPD-1
T1 sequence (looked up): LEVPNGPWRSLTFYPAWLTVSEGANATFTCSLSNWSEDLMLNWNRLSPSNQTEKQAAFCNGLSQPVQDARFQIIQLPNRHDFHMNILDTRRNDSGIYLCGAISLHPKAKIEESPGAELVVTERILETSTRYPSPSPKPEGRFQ

B1: IL-12(E59A/F60A)/anti-PD-1(D100G) (other)
heavy 1: QVQLVESGGGVVQPGRSLRLDCKASGITFSNSGMHWVRQAPGKGLEWVAVIWYDGSKRYYADSVKGRFTISRDNSKNTLFLQMNSLRAEDTAVYYCATNGDYWGQGTLVTVSSASTKGPSVFPLAPSSKSTSGGTAALGCLVKDYFPEPVTVSWNSGALTSGVHTFPAVLQSSGLYSLSSVVTVPSSSLGTQTYICNVNHKPSNTKVDKKVEPKSCDKPGSGIWELKKDVYVVELDWYPDAPGEMVVLTCDTPEEDGITWTLDQSSEVLGSGKTLTIQVKAAGDAGQYTCHKGGEVLSHSLLLLHKKEDGIWSTDILKDQKEPKNKTFLRCEAKNYSGRFTCWWLTTISTDLTFSVKSSRGSSDPQGVTCGAATLSAERVRGDNKEYEYSVECQEDSACPAAEESLPIEVMVDAVHKLKYENYTSSFFIRDIIKPDPPKNLQLKPLKNSRQVEVSWEYPDTWSTPHSYFSLTFCVQVQGKSKREKKDRVFTDKTSATVICRKNASISVRAQDRYYSSSWSEWASVPCSGGGGSGGGGSGGGGSGGGGSGRNLPVATPDPGMFPCLHHSQNLLRAVSNMLQKARQTLEFYPCTSEEIDHEDITKDKTSTVEACLPLELTKNESCLNSRETSFITNGSCLASRKTSFMMALCLSSIYEDLKMYQVEFKTMNAKLLMDPKRQIFLDQNMLAVIDELMQALNFNSETVPQKSSLEEPDFYKTKIKLCILLHAFRIRAVTIDRVMSYLNASDKTHTCPPCPAPEDEGGPSVFLFPPKPKDTLMISRTPEVTCVVVDVSHEDPEVKFNWYVDGVEVHNAKTKPREEQYNSTYRVVSVLTVLHQDWLNGKEYKCKVSNKALPAPIEKTISKAKGQPREPQVYVYPPSREEMTKNQVSLTCLVKGFYPSDIAVEWESNGQPENNYKTTPPVLDEDGSFALVSKLTVDKSRWQQGNVFSCSVMHEALHNHYTQKSLSLSPGK
heavy 2: QVQLVESGGGVVQPGRSLRLDCKASGITFSNSGMHWVRQAPGKGLEWVAVIWYDGSKRYYADSVKGRFTISRDNSKNTLFLQMNSLRAEDTAVYYCATNGDYWGQGTLVTVSSASTKGPSVFPLAPSSKSTSGGTAALGCLVKDYFPEPVTVSWNSGALTSGVHTFPAVLQSSGLYSLSSVVTVPSSSLGTQTYICNVNHKPSNTKVDKKVEPKSCDKTHTCPPCPAPEKKGGPSVFLFPPKPKDTLMISRTPEVTCVVVDVSHEDPEVKFNWYVDGVEVHNAKTKPREEQYNSTYRVVSVLTVLHQDWLNGKEYKCKVSNKALPAPIEKTISKAKGQPREPQVYVLPPSREEMTKNQVSLLCLVKGFYPSDIAVEWESNGQPENRYMTWPPVLDSDGSFFLYSKLTVDKSRWQQGNVFSCSVMHEALHNHYTQKSLSLSPGK
light: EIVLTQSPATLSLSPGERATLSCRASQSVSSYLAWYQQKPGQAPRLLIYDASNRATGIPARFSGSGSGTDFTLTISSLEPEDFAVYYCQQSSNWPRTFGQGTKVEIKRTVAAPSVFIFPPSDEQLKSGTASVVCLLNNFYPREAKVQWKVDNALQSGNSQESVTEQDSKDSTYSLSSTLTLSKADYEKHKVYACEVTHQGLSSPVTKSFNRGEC
B2: IL-12(E59A/F60A)/anti-PD-1(D100N) (other)
heavy 1: B1 heavy 1 with G100N
heavy 2: B1 heavy 2 with G100N
light: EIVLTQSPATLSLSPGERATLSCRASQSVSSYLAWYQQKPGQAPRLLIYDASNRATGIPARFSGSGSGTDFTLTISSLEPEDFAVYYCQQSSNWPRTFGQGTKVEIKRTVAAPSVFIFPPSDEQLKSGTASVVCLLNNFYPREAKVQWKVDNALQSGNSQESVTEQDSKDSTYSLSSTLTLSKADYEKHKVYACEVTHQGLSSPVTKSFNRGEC
B3: IL-12(E59A/F60A)/anti-PD-1(D100R) (other)
heavy 1: B1 heavy 1 with G100R
heavy 2: B1 heavy 2 with G100R
light: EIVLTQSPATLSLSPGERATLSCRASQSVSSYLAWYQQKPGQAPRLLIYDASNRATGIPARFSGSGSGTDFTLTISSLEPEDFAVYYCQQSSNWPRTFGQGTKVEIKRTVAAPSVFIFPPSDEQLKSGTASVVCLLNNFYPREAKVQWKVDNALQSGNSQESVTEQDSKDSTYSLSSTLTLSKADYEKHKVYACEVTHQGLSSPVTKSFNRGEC
B4: PD-L2(wt)-Fc (Fc fusion)
chain 1: LFTVTVPKELYIIEHGSNVTLECNFDTGSHVNLGAITASLQKVENDTSPHRERATLLEEQLPLGKASFHIPQVQVRDEGQYQCIIIYGVAWDYKYLTLKVKASYRKINTHILKVPETDEVELTCQATGYPLAEVSWPNVSVPANTSHSRTPEGLYQVTSVLRLKPPPGRNFSCVFWNTHVRELTLASIDLQSQMEPRTHPTDKTHTCPPCPAPEDEGGPSVFLFPPKPKDTLMISRTPEVTCVVVDVSHEDPEVKFNWYVDGVEVHNAKTKPREEQYNSTYRVVSVLTVLHQDWLNGKEYKCKVSNKALPAPIEKTISKAKGQPREPQVYVYPPSREEMTKNQVSLTCLVKGFYPSDIAVEWESNGQPENNYKTTPPVLDEDGSFALVSKLTVDKSRWQQGNVFSCSVMHEALHNHYTQKSLSLSPGK
chain 2: B4 chain 1 with D215K, E216K, Y332L, T347L, N371R, K373M, T375W, E381S, A386F, V388Y
notes: also called None
B5: Fab-IL-12(E59A/F60A)-Fc-CD8 Ab (other)
heavy 1: EVQLQQSGPELVKPGASVKMSCKASGYTFTDYYMKWVKQSHGKSLEWIGHINPNNDDTFYTQKFKGRATLTVDKSSSTAYMQLNSLTSEDSAVYYCVRDDYDGGWFAYWGQGTLVTVSSASTKGPSVFPLAPSSKSTSGGTAALGCLVKDYFPEPVTVSWNSGALTSGVHTFPAVLQSSGLYSLSSVVTVPSSSLGTQTYICNVNHKPSNTKVDKKVEPKSCDKPGSGIWELKKDVYVVELDWYPDAPGEMVVLTCDTPEEDGITWTLDQSSEVLGSGKTLTIQVKAAGDAGQYTCHKGGEVLSHSLLLLHKKEDGIWSTDILKDQKEPKNKTFLRCEAKNYSGRFTCWWLTTISTDLTFSVKSSRGSSDPQGVTCGAATLSAERVRGDNKEYEYSVECQEDSACPAAEESLPIEVMVDAVHKLKYENYTSSFFIRDIIKPDPPKNLQLKPLKNSRQVEVSWEYPDTWSTPHSYFSLTFCVQVQGKSKREKKDRVFTDKTSATVICRKNASISVRAQDRYYSSSWSEWASVPCSGGGGSGGGGSGGGGSGGGGSGRNLPVATPDPGMFPCLHHSQNLLRAVSNMLQKARQTLEFYPCTSEEIDHEDITKDKTSTVEACLPLELTKNESCLNSRETSFITNGSCLASRKTSFMMALCLSSIYEDLKMYQVEFKTMNAKLLMDPKRQIFLDQNMLAVIDELMQALNFNSETVPQKSSLEEPDFYKTKIKLCILLHAFRIRAVTIDRVMSYLNASDKTHTCPPCPAPEDEGGPSVFLFPPKPKDTLMISRTPEVTCVVVDVSHEDPEVKFNWYVDGVEVHNAKTKPREEQYNSTYRVVSVLTVLHQDWLNGKEYKCKVSNKALPAPIEKTISKAKGQPREPQVYVYPPSREEMTKNQVSLTCLVKGFYPSDIAVEWESNGQPENNYKTTPPVLDEDGSFALVSKLTVDKSRWQQGNVFSCSVMHEALHNHYTQKSLSLSPGK
heavy 2: EVQLQQSGPELVKPGASVKMSCKASGYTFTDYYMKWVKQSHGKSLEWIGHINPNNDDTFYTQKFKGRATLTVDKSSSTAYMQLNSLTSEDSAVYYCVRDDYDGGWFAYWGQGTLVTVSSASTKGPSVFPLAPSSKSTSGGTAALGCLVKDYFPEPVTVSWNSGALTSGVHTFPAVLQSSGLYSLSSVVTVPSSSLGTQTYICNVNHKPSNTKVDKKVEPKSCDKTHTCPPCPAPEKKGGPSVFLFPPKPKDTLMISRTPEVTCVVVDVSHEDPEVKFNWYVDGVEVHNAKTKPREEQYNSTYRVVSVLTVLHQDWLNGKEYKCKVSNKALPAPIEKTISKAKGQPREPQVYVLPPSREEMTKNQVSLLCLVKGFYPSDIAVEWESNGQPENRYMTWPPVLDSDGSFFLYSKLTVDKSRWQQGNVFSCSVMHEALHNHYTQKSLSLSPGK
light: DIQMTQTTSSLSASLGDRVTISCRASQDINNYLNWYQQKSDGTIKLLIYYTSRSYSGVPSRFSGSGSGTDYSLTISNRRQEDIATYFCQQGKTLPWTFGGGTKLEIKRTVAAPSVFIFPPSDEQLKSGTASVVCLLNNFYPREAKVQWKVDNALQSGNSQESVTEQDSKDSTYSLSSTLTLSKADYEKHKVYACEVTHQGLSSPVTKSFNRGEC
B6: Fab-IL-12(F60A)-Fc-CD8 Ab (other)
heavy 1: B5 heavy 1 with A287E
heavy 2: B5 heavy 2
light: B5 light

Tests used:
[1] = biological target: T2, human IL-12 receptor complex (human, UniProt P42701 24-662; Q99665 24-862); experiment: cell-based or functional assay
[2] = biological target: human PD-1 overexpressed on HEK-Blue reporter cells (human, UniProt Q15116 25-288); experiment: cell-based or functional assay
human PD-1 [3] = biological target: T3, human PD-1 (human, UniProt Q15116 25-167, limits assumed); experiment: Kd column of Table 18; same value as the antibody in Table 17
T3 construct: nivolumab is called an anti-human PD-1 antibody; also called hPD-1

human PD-1 [4] = biological target: T3, human PD-1; experiment: Kd to PD-1 as printed for the construct in Table 19; method not told there; same value as for the parental anti-PD-1 antibody
mouse PD-1 = biological target: T1, mouse PD-1; experiment: affinity measured in PD-L2-Fc format; method not named
human PD-1 [5] = biological target: T3, human PD-1; experiment: as above
human CD4 on cells = biological target: T4, human CD4 on cells (human, UniProt P01730 26-458); experiment: FACS on CD4+ T cells
T4 construct: whole, on cells; also called CD4+ T cells; HEK-CD4-IFN-γ cells

[6] = biological target: T2, human IL-12 receptor complex; experiment: cell-based or functional assay; remark: listed apart in the source

T3 sequence (Q15116 25-167 limits assumed): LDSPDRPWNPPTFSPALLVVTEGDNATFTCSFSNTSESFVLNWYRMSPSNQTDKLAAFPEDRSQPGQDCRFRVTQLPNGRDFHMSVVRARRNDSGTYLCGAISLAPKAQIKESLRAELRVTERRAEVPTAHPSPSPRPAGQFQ
human PD-1 overexpressed on HEK-Blue reporter cells, sequence (Q15116 25-288): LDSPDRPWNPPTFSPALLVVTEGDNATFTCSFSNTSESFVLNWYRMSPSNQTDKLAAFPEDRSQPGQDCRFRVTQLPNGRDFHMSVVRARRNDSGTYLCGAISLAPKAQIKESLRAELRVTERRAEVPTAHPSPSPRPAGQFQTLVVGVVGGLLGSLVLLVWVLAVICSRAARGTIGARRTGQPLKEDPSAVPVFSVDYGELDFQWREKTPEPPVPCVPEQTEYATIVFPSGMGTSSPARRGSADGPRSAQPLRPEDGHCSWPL
T2 sequence (Q99665 24-862, chain 2 of 2, other chains not shown): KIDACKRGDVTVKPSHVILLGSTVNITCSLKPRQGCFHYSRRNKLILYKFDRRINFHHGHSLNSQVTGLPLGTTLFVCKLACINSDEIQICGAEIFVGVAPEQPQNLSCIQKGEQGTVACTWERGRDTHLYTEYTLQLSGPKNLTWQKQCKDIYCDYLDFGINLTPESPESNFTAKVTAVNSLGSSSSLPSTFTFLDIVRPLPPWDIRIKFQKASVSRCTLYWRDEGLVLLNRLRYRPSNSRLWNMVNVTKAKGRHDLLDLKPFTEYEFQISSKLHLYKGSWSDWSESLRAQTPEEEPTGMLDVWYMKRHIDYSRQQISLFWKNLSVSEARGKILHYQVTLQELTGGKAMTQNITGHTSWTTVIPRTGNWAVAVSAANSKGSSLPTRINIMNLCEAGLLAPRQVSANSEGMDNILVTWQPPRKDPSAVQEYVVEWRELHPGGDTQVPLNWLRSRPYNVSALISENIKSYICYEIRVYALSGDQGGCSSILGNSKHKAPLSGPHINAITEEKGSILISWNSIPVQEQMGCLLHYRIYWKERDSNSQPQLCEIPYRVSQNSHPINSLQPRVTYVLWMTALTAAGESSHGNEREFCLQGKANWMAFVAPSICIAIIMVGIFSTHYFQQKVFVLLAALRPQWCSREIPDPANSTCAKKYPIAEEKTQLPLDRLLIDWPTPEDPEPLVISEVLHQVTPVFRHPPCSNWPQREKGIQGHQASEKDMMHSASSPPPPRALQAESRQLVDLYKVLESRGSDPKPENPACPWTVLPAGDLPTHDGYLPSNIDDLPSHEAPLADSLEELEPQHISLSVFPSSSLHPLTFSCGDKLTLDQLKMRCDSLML

Row | Binder | IL-12 signal transduction, % of rIL-12, HEK-IL-12 cells [1] [%] | IL-12 signal transduction, % of rIL-12, HEK-IL-12-PD-1 (high) [2] [%] | IL-12 signal transduction, % of rIL-12, HEK-IL-12-PD-1 (low) [2] [%] | Kd (human PD-1 [3]) [nM] | Kd (human PD-1 [4]) [nM] | Kd (mouse PD-1) [nM] | Kd (human PD-1 [5]) [nM] | binding result (human CD4 on cells) | IFN-γ release, % of rIL-12, activated CD4+ T cells [6] [%]
1 | B1 | < 0.2 | 33 | 17 | 130 | 130 | – | – | – | –
2 | B2 | < 0.2 | 38 | 33 | 25 | 25 | – | – | – | –
3 | B3 | < 0.2 | 10 | 3 | 910 | 910 | – | – | – | –
4 | B4 | – | – | – | – | – | 980 | 1200 | – | –
5 | B5 | – | – | – | – | – | – | – | no binding | 0
6 | B6 | – | – | – | – | – | – | – | no binding | 1.2
